Numbering of substitutions follows the chain as printed. Names may count otherwise. Non-standard residues stand in square brackets, D forms with d. No end group written: not given here. pS = N[C@@H](COP(=O)(O)O)C(=O)O
B1: HmzTa1505-hIgG4-S228P (antibody)
heavy: not shown
light: DIVMTQSPLSLPVTLGEPASISCRSSQNIVHSNANTYLEWYLQKPGQSPQLLIYTVSNRFSGVPDRFSGSGSGTDFTLKISRVEAEDLGVYYCFQGSHLPLTFGGGTKVEIKRTVAAPSVFIFPPSDEQLKSGTASVVCLLNNFYPREAKVQWKVDNALQSGNSQESVTEQDSKDSTYSLSSTLTLSKADYEKHKVYACEVTHQGLSSPVTKSFNRGEC
B2: V8-AFM-hIgG1-LALA-YTE (antibody)
heavy: EVQLVESGGGLVQPGGSLRLSCAASGFTFSSFALNWVRQAPGKGLEWVGHIRSETNNYVTFYAASVKGRFTVSRDDSQNTAYLQMNSLKTEDTATYYCVRRGPRDSWFGYWGQGTLVTVSSASTKGPSVFPLAPSSKSTSGGTAALGCLVKDYFPEPVTVSWNSGALTSGVHTFPAVLQSSGLYSLSSVVTVPSSSLGTQTYICNVNHKPSNTKVDKKVEPKSCDKTHTCPPCPAPEAAGGPSVFLFPPKPKDTLYITREPEVTCVVVDVSHEDPEVKFNWYVDGVEVHNAKTKPREEQYNSTYRVVSVLTVLHQDWLNGKEYKCKVSNKALPAPIEKTISKAKGQPREPQVYTLPPSRDELTKNQVSLTCLVKGFYPSDIAVEWESNGQPENNYKTTPPVLDSDGSFFLYSKLTVDKSRWQQGNVFSCSVMHEALHNHYTQKSLSLSPGK
light: B1 light with N28K, S32R, H98Y
notes: Human IgG1 L234A L235A YTE/kappa; also called V8-AFM-IgG1-LALA-YTE
B3: V5-AFM-hIgG4-S228P (antibody, V domains shown)
VH: EVQLVESGGGLVQPGGSLRLSCAASGFTFSSFALNWVRQAPGKGLEWVGHIRSKTNNYVTFYAASVKGRFTVSRDDSQNTAYLQMNSLKTEDTATYYCVRRGPRDSWFGYWGQGTLVTVSS
VL: DIVMTQSPLSLPVTLGEPASISCRSSQKIVHRNANTYLEWYLQKPGQSPQLLIYTVSNRFSGVPDRFSGSGSGTDFTLKISRVEAEDLGVYYCFQGSYLPLTFGGGTKVEIK
notes: also called V5-AFM-IgG4-S228P
B4: V8-AFM-hIgG1-LALA (antibody)
heavy: not shown
light: B1 light with N28K, S32R, H98Y
notes: Human IgG1 L234A L235A/kappa; also called V8-AFM-IgG1-LALA
B5: V8-AFM-hIgG4-S228P (antibody)
heavy: not shown
light: B1 light with N28K, S32R, H98Y
notes: also called V8-AFM-IgG4-S228P

The binders below were run against T1, tau species in CSF of African Green Monkeys (African Green Monkey) (assay: competitive ELISA, fresh AGM CSF (75 µl of neat CSF)).
T1 construct: also called Fresh African Green Monkey (AGM) CSF
Description: (§1) Binding affinities of various anti-tau-pS413 antibodies described herein for endogenous tau species were determined in brain homogenates and CSF samples from AD patients and preclinical models. Briefly, samples were pre-incubated with different concentrations of various anti-tau-pS413 antibodies, or respective isotype controls. Following a one-hour pre-incubation period, the antigen-antibody (Ag-Ab) mixture was added to plates pre-coated with a total tau capture antibody (Innotest ELISA kit).
With B1 the EC50 was 2.08 nM. B2 was tested, and the EC50 was 0.008 nM.

What follows are binders tested against T2, phosphorylated tau protein monomer (35 AWM) (assay: competitive ELISA, phosphorylated tau protein monomer 35 AWM (1 ng)).
T2 construct: also called recombinant phosphorylated tau protein monomer
In the case of B1, the EC50 is reported as 6.73 nM. B2 was tested, and the EC50 was 0.055 nM.

Biological target: T3, pT212/pS214GC (69AXY) (human, phosphothreonine 212 and phosphoserine 214 of tau, printed GCGSPGTPGSRSR(pT)P(pS)LPTPPTREPK)
T3 construct: also called T-pT212pS214GC
T3 peptide: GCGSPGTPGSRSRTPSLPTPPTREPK
Test: peptide-coated ELISA (1 µg/ml peptide 69AXY coat, anti-human IgG-HRP, ABTS, OD405)
Description: (§2) Binding specificity of the high affinity antibodies described herein was assessed with various tau peptides by a peptide-coated ELISA. Plates were coated with 50 μl of 1 μg/ml peptides 69AXY, 70AXY, 74AXY, 84AWK, 25AWF, or 24AWF in PBS for overnight at 4° C. On the next day, the plates were washed 3 times, blocked with 200 μl of superblock for 1 hr at room temperature, then washed 3 times again. Antibodies were diluted at 1:5 serial dilution in ELISA buffer starting from 10 μg/ml. The plates were incubated with 50 μl of serially diluted antibodies at room temperature for 1 hr and washed 3 times.
B3: no binding (tested: 10 µg/ml). B4: no binding (tested: 10 µg/ml). B5: no binding (tested: 10 µg/ml). B2: no binding (tested: 10 µg/ml).

These binders were tested against T4, tau species in brain homogenates from mutant tau mice (rTg(tauP301L)4510), sarkosyl insoluble tau seeds (assay: competitive ELISA, tau mutant mice brain SI tau seeds (4 ng protein)).
T4 construct: also called Tau mutant mice brain; SI Tau seeds
Description: as §1
Tissue homogenates were prepared using 1% sarkosyl buffer with several high-speed centrifugation steps to enrich for insoluble proteins including tau.
Work on B1 yielded an EC50 of 0.67 nM. With B2 the EC50 was 0.004 nM.

Biological target: T5, pSer412Cys (74AXY) (human)
T5 peptide: NV[pS]STGSC
Test: peptide-coated ELISA (1 µg/ml peptide 74AXY coat, anti-human IgG-HRP, ABTS, OD405)
Description: as §2
B3: no binding (tested: 10 µg/ml). B4: no binding (tested: 10 µg/ml). B5: no binding (tested: 10 µg/ml). B2: no binding (tested: 10 µg/ml).

These binders were tested against cynomolgus monkey (cyno) FcRn (cynomolgus monkey, UniProt Q8SPV9 24-297; Q8SPW0 21-119, limits assumed) (assay: SPR (Biacore), antibody captured by anti-human kappa, FcRn injected, pH 6.0, steady-state fit; pH 6.0).
Description: (§3) Anti-human kappa antibody was amine coupled to a CMS chip. Each antibody was captured to 200-300 RUs. Binding assays were performed using PBS running buffer containing 0.05% Tween-20, adjusted to either pH 6.0 or 7.4. Titration samples were also prepared using the corresponding pH buffer for the assay. Titrating concentrations (1200 nM top, 6-point, 3-fold dilution series and two zeros) of human or cyno FcRn were injected over the captured mAbs. Each sample injection was followed by two 30-second injections of 10 mM glycine, pH 1.5 and a 12-second injection of 10 mM NaOH to regenerate the surface for subsequent antibody capture and injection. All assays were run on Biacore T200 and/or 4000 instruments (GE Healthcare) and the data were fit to a steady-state approximation model using Biaevaluation software. Affinity at pH 6.0 was calculated as equivalent to concentration at half maximal binding signal in the steady-state approximation (TABLE 9).
B4 was tested, and the “Cyno FcRn fold change (relative to HmzTa1505-hIgG4-S228P)” value was 1.6 fold and the Kd was 160 nM. In the case of B5, the “Cyno FcRn fold change (relative to HmzTa1505-hIgG4-S228P)” value is reported as 1 fold and the Kd is reported as 260 nM. In the case of B1, the “Cyno FcRn fold change (relative to HmzTa1505-hIgG4-S228P)” value is reported as 1 fold and the Kd is reported as 260 nM. For B2, the “Cyno FcRn fold change (relative to HmzTa1505-hIgG4-S228P)” value was 11 fold and the Kd was 24 nM.

Each binder was assayed against human FcRn (human, UniProt P55899 24-297; P61769 21-119, limits assumed) in the same assay as above.
Description: as §3
With B4 the “Human FcRn fold change (relative to HmzTa1505-hIgG4-S228P)” value was 1 fold and the Kd was 230 nM. For B5, the “Human FcRn fold change (relative to HmzTa1505-hIgG4-S228P)” value was 1 fold and the Kd was 210 nM. B1 was tested, and the “Human FcRn fold change (relative to HmzTa1505-hIgG4-S228P)” value was 1 fold and the Kd was 220 nM. B2 was tested, and the “Human FcRn fold change (relative to HmzTa1505-hIgG4-S228P)” value was 6.5 fold and the Kd was 34 nM.

Biological target: T6, pS396/400/404GC (84AWK) (human, phosphoserines at 396, 400 and 404 of tau, printed GCRENAKAKTDHGAEIVYK(pS)PVV(pS)GDT(pS)PRHL)
T6 construct: also called T-pS396/400/404GC
T6 peptide: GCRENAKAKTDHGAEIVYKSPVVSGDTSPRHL
Test: peptide-coated ELISA (1 µg/ml peptide 84AWK coat, anti-human IgG-HRP, ABTS, OD405)
Description: as §2
B3: no binding (tested: 10 µg/ml). B4: no binding (tested: 10 µg/ml). B5: no binding (tested: 10 µg/ml). B2: no binding (tested: 10 µg/ml).

Reference: patent US20210403541A1 (Merck Sharp & Dohme, published 2021)
